The text below walks through data of patent US12258396 (MEDICOVESTOR, dated 2025).

In test [1] the target is T1, fusion protein containing the extracellular domain of cynomolgus FRalpha and a polyhistidine tag (cynomolgus, UniProt A0A2K5U044 25-233).
T1 construct: extracellular domain; Coated on ELISA plates; also called cynomolgus FRalpha extracellular domain; not shown: polyhistidine tag
The test can be described thus: ELISA, plate coated with cynomolgus FRalpha ECD-His, anti-human-IgG-Fc-HRP detection. (An ELISA detects its analyte on a solid surface through an enzyme-linked reagent.)

For test [2], the target named is T2, fusion protein containing the extracellular domain of human FRalpha and a polyhistidine tag (human, UniProt P15328 25-233).
T2 construct: extracellular domain; Coated on ELISA plates; also called human FRalpha extracellular domain; not shown: polyhistidine tag
The test can be described thus: ELISA, plate coated with human FRalpha ECD-His, anti-human-IgG-Fc-HRP detection. On the procedure:
The affinity of each IgG1 for FRalpha was confirmed by ELISA. Briefly, a fusion protein containing the extracellular domain of human FRalpha and a polyhistidine tag was used to coat ELISA plates, which were washed three times with phosphate-buffered saline (PBS) containing 0.1 percent polysorbate 20 (PBST), then blocked with PBS containing 5 percent powdered milk (PBSM), and then washed three more times with PBST. Wells were then incubated with antibodies at varying concentrations for 60 minutes at room temperature in 1 percent PBSM. Wells were then washed three times with PBST, after which the secondary, horse-radish-peroxidase-conjugated antibody anti-human-IgG-Fc-HRP (ab97225, Abcam, United Kingdom) was added at a 1:8000 dilution in 1 percent PBSM for 50 minutes at room temperature. The wells were then washed six times with PBST, after which 3,3',5,5"-tetramethylbenzidine (TMB) was added. The reaction was stopped with 2 molar sulfuric acid, and the TMB diamine product was quantified at 450 nanometers in a plate reader. Results are depicted in FIG. 2.

Test [3] concerns the target T3, human FRalpha expressed on cells (transfected HEK293 cells; SKOV3 human ovarian cancer cells) (human, UniProt P15328 25-234).
T3 construct: whole, on cells; also called human folate receptor alpha
Put plainly: flow cytometry on HEK293 cells transfected to express FRalpha, PE anti-human IgG Fcgamma detection. On the procedure:
(§1) The affinity of each antibody was then assessed by flow cytometry. Briefly, HEK293 cells transfected to express FRalpha were washed with fluorescence-activated cell sorting (FACS) buffer, to which the IgGs were added at varying concentrations and incubated at 4 degrees Celsius for 60 minutes. The cells were then centrifuged and washed twice in FACS buffer. A phycoerythrin-labelled anti-human IgG, Fcgamma antibody (109-115-098; Jackson ImmunoResearch, Pennsylvania, United States) was then added to the cells at a 1:200 dilution and incubated at 4 degrees Celsius for 30 minutes. The cells were then washed, resuspended in FACS buffer, and counted by flow cytometry. Results are depicted in FIG. 4.
(A flow cytometer gives signals particle by particle.)

The target of test [4] is T3, human FRalpha expressed on cells …. Put plainly: flow cytometry on SKOV3 human ovarian cancer cells that express FRalpha. On the procedure: as §1
The flow cytometry experiment of the preceding paragraph was repeated with a human ovarian cancer cell line that expresses FRalpha, SKOV3. Results are depicted in FIGS. 5A and 5B. […] The antibody according to SEQ ID NO: 3-12 was then designated the lead antibody for further development.

A value given as a limit tells only on which side of the number the result lay.

T3 sequence (P15328 25-234): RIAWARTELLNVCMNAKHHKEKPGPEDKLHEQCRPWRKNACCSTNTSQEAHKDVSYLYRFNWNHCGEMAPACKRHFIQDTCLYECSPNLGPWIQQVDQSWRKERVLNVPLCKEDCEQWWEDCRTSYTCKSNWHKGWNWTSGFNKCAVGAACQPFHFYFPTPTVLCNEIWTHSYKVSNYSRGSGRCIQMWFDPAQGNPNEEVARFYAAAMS
T2 sequence (P15328 25-233 limits assumed): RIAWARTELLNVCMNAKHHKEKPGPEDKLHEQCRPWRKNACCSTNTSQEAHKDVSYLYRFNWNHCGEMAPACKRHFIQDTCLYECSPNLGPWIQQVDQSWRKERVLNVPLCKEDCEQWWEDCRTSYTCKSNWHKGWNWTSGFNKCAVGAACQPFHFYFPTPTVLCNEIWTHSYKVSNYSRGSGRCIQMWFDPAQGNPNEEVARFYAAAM
T1 sequence (A0A2K5U044 entry or part of it): as the sequence (P15328 25-233 limits assumed) above, with I2T, W4R, R37K, A146P, H171Y counted along it

B1: Mirvetuximab (antibody, V domains shown)
VH: QVQLVQSGAEVVKPGASVKISCKASGYTFTGYFMNWVKQSPGQSLEWIGRIHPYDGDTFYNQKFQGKATLTVDKSSNTAHMELLSLTSEDFAVYYCTRYDGSRAMDYWGQGTTVTVSS
VL: DIVLTQSPLSLAVSLGQPAIISCKASQSVSFAGTSLMHWYHQKPGQQPRLLIYRASNLEAGVPDRFSGSGSKTDFTLTISPVEAEDAATYYCQQSREYPYTFGGGTKLEIK
On to B1, for which the figures for the 50% effective concentration (EC50) in test [1], in test [2] and in test [3] were around 0.16 nM, around 0.12 nM and around 4 nM, respectively.

B2: lead fully-human anti-FRalpha IgG1 antibody (antibody according to SEQ ID NO: 3-12) (antibody, V domains shown)
VH: EVQLLESGGGLVKPGGSLRLSCAASGFTFSSYTMNWVRQAPGKGLEWVSSISSGGGYIYYADSVKDRFTISRDNAKNSLYLQMNSLRAEDTAVYYCAKGDTIMIISAWGQGTTVTVSS
VL: DIQLTQSPSTLSASVGDRVTITCRASQSISSWLAWHQQKPGKAPKLLIYAASSLQNGVPSRFSGSGFGTDFTLTISSLQPEDFATYYCQQASSFPLTFGGGTKVEIKR
notes: Fully human IgG1/kappa; also called lead antibody; lead anti-FRalpha antibody
Take B2: the EC50 (commonly the concentration giving half of the maximal effect) in test [1] was around 0.06 nM; in test [2], around 0.05 nM; in test [3], around 5 nM; in test [4], below 1 nM.
